# Source: the RNAGym collection of RNA variant scans (doi:10.7554/elife.80360)
# B1: HDV Ribozyme (parent)
# chain: GGCCGGCAUGGUCCCAGCCUCCUCGCUGGCGCCGGCUGGGCAACAUUCCGAGGGGACCGUCCCCUCGGUAAUGGCGAAUGGGACCCA
# Variants of: B1
# Test: self-cleavage, relative activity (ratio to wild type); higher = more cleavage; co-transcriptional
row,Variant,self-cleavage
1,A8U G39C,0.166
2,A8G C85G,0.895
3,U9C G52A,1.04
4,U9C G52U,1.06
5,A8G C66U,1.14
6,U9C C86A,1.03
7,A8C U37C,0.997
8,A8C U37A,0.128
9,A8C C48U,0.776
10,A8U C13A,0
11,A8U C13G,0
12,U9C G29C,0.138
13,U9C G29U,0.115
14,U9A G34A,0.232
15,A8G U60G,1.11
16,A8G A16C,0.639
17,A8G A16U,0.895
18,A8C U12A,0
19,U9A A77G,0.751
20,U9C C14U,1.11
21,A8C C85U,0.886
22,U9C G10A,0.985
23,A8G C84A,0.598
24,A8U C19A,0

row,Variant,self-cleavage
1,U9A G67C,0.831
2,U9G C61U,1.05
3,U9G G82C,0.646
4,U9C G11A,0.0755
5,A8U U37G,0.222
6,U9G C26A,1.23
7,U9G C26U,0.554
8,U9A G54A,0.943
9,A8C G80C,0.133
10,U9G C36A,0.401
11,U9G C36U,0.864
12,A8U A71G,0.917
13,A8U A71U,0.917
14,A8U A71C,0.703
15,A8U C61A,0.831
16,A8U C61U,0.739
17,U9A C41A,0.831
18,A8C C62U,0.918
19,U9G U79A,0.68
20,A8U C63U,0.862
21,A8U C63G,0.646
22,A8G U12G,0.712
23,A8G G59C,0.858
24,A8G G59U,0.914

row,Variant,self-cleavage
1,A8U G29C,0.0554
2,A8U G17A,0.665
3,A8U G17U,0.18
4,G10A A87C,0.764
5,U9G U20C,0
6,U9C G82A,0.266
7,U9C G82C,0.262
8,U9G C13G,0.111
9,U9C U46G,1.19
10,A8C G55A,0.636
11,U9C C22A,0.192
12,U9C G34U,0.178
13,U9A A71C,1.05
14,U9G G67A,0.88
15,U9C G76C,1.11
16,A8C G68C,0.604
17,U9C C44G,0.63
18,A8U C21A,0
19,A8C C57G,0.87
20,A8U C64U,1.11
21,U9C G55A,1.27
22,U9C G55U,1.2
23,U9C G55C,0.703
24,U9G A87G,1.15

row,Variant,self-cleavage
1,U9G G68U,0.782
2,U9G C14U,1.08
3,U9G C14G,1.2
4,A8C U23C,0.506
5,U9C C85A,0.969
6,U9G C44A,0.415
7,A8G C63U,1.26
8,A8C G82C,0.0923
9,A8G A83U,0.246
10,A8U U65A,0.617
11,A8U U65G,0.748
12,A8U G11U,0.201
13,G10A C26G,1.11
14,G10A C26A,0.906
15,U9A C21U,0.155
16,A8G C33A,0.101
17,A8G C33U,0.751
18,A8C G81A,0.151
19,A8C U69C,0.831
20,G10A A71G,0.703
21,G10A A71C,0.456
22,U9G G50U,1.15
23,A8U G52C,0.779
24,G10A C13A,0.0941

row,Variant,self-cleavage
1,U9A G10A,1.03
2,A8G C75A,0.0692
3,U9C A77U,0.867
4,U9A A43U,0.675
5,U9A A43G,0.712
6,U9G C19A,0.208
7,A8G G73U,0.148
8,A8G C13U,0
9,A8G C13G,0.0923
10,U9A U47G,0.772
11,A8U C22A,0.0923
12,A8U C14G,0.237
13,A8G U72G,0.536
14,A8G A87C,1.18
15,A8G A87G,0.942
16,U9G A42U,0.587
17,A8G G68A,1.03
18,A8U U60A,0.939
19,U9A C62U,1.06
20,A8G G76A,1.09
21,A8U A70U,0.772
22,U9G C24G,0.453
23,A8G U27G,0.831
24,U9G C62U,0.731

row,Variant,self-cleavage
1,A8G G39C,0.142
2,A8G U9G,0.831
3,A8C U47C,0.665
4,U9C C64A,0.831
5,U9C C19A,0.175
6,A8U A43G,0.578
7,G10A A51U,0.923
8,U9C C66A,1.04
9,A8G G11U,0.0739
10,A8G G11C,0.0437
11,A8G G82U,0.369
12,U9C C41G,0.831
13,U9C G67U,1.12
14,U9C G67C,0.703
15,U9G A77G,0.767
16,A8U C41U,0.594
17,U9C A78C,0.128
18,U9C U79A,0.831
19,U9A G81C,0.35
20,A8G U79C,0.256
21,A8G U79A,0.692
22,U9G G35C,0.0639
23,U9G G39A,0.475
24,A8U C15U,0.935

row,Variant,self-cleavage
1,A8U G80C,0.128
2,A8U G80U,0.0715
3,G10A A83C,0.287
4,G10A A83U,0.322
5,U9A C86G,1.04
6,U9A C86A,0.554
7,A8C G39U,0.381
8,A8C G39A,0.151
9,A8C G39C,0.0615
10,U9C A42U,0.767
11,A8U C62U,0.989
12,A8U C62A,0.956
13,A8U C62G,0.287
14,U9C U37G,0
15,U9C U37A,0.289
16,U9A G80U,0.213
17,U9G C57U,1.03
18,A8U U69A,0.962
19,A8U U69C,0.646
20,U9C C26G,0.886
21,G10A A78G,0.302
22,U9G G74A,0.751
23,U9G G74C,0.437
